Laboratory results reported in paper PMC11929605 (Nature, 2024).

B1: human CaSR (residues 20-894), wild-type construct FLAG-CaSR (receptor, UniProt P41180 20-894, looked up)
chain: YGPDQRAQKKGDIILGGLFPIHFGVAAKDQDLKSRPESVECIRYNFRGFRWLQAMIFAIEEINSSPALLPNLTLGYRIFDTCNTVSKALEATLSFVAQNKIDSLNLDEFCNCSEHIPSTIAVVGATGSGVSTAVANLLGLFYIPQVSYASSSRLLSNKNQFKSFLRTIPNDEHQATAMADIIEYFRWNWVGTIAADDDYGRPGIEKFREEAEERDICIDFSELISQYSDEEEIQHVVEVIQNSTAKVIVVFSSGPDLEPLIKEIVRRNITGKIWLASEAWASSSLIAMPQYFHVVGGTIGFALKAGQIPGFREFLKKVHPRKSVHNGFAKEFWEETFNCHLQEGAKGPLPVDTFLRGHEESGDRFSNSSTAFRPLCTGDENISSVETPYIDYTHLRISYNVYLAVYSIAHALQDIYTCLPGRGLFTNGSCADIKKVEAWQVLKHLRHLNFTNNMGEQVTFDECGDLVGNYSIINWHLSPEDGSIVFKEVGYYNVYAKKGERLFINEEKILWSGFSREVPFSNCSRDCLAGTRKGIIEGEPTCCFECVECPDGEYSDETDASACNKCPDDFWSNENHTSCIAKEIEFLSWTEPFGIALTLFAVLGIFLTAFVLGVFIKFRNTPIVKATNRELSYLLLFSLLCCFSSSLFFIGEPQDWTCRLRQPAFGISFVLCISCILVKTNRVLLVFEAKIPTSFHRKWWGLNLQFLLVFLCTFMQIVICVIWLYTAPPSSYRNQELEDEIIFITCHEGSLMALGFLIGYTCLLAAICFFFAFKSRKLPENFNEAKFITFSMLIFFIVWISFIPAYASTYGKFVSAVEVIAILAASFGLLACIFFNKIYIILFKPSRNTIEEVRCSTAAHAFKVAARATLRRSNV

Experiments:
[1] = target: B1; experiment: cryo-EM structure
cryo-EM structure = target: the molecule itself; experiment: cryo-EM structure

Row | binding result [1] | Binder | stoichiometry N (cryo-EM structure)
1 | binds | WT human Gαi3 (natural protein, lipidated N-terminus) MGCTLSAEDKAAVERSKMIDRNLREDGEKAAKEVKLLLLGAGESGKSTIVKQMKIIHEDGYSEDECKQYKVVVYSNTIQSIIAIIRAMGRLKIDFGEAARADDARQLFVLAGSAEEGVMTPELAGVIKRLWRDGGVQACFSRSREYQLNDSASYYLNDLDRISQSNYIPTQQDVLRTRVKTTGIVETHFTFKDLYFKMFDVGGQRSERKKWIHCFEGVTAIIFCVALSDYDLVLAEDEEMNRMHESMKLFDSICNNKWFTETSIILFLNKKDLFEEKIKRSPLTICYPEYTGSNTYEEAAAYIQCQFEDLNRRKDTKEIYTHFTCATDTKNVQFVFDAVTDVIIKNNLKECGLY | 
2 |  | B1 | 2
